B1: ADP-ribosylation factor-like protein 2-binding protein (Homo sapiens), Q9Y2Y0 (parent)
chain: MDALEGESFALSFSSASDAEFDAVVGYLEDIIMDDEFQLLQRNFMDKYYLEFEDTEENKLIYTPIFNEYISLVEKYIEEQLLQRIPEFNMAAFTTTLQHHKDEVAGDIFDMLLTFTDFLAFKEMFLDYRAEKEGRGLDLSSGLVVTSLCKSSSLPASQNNLRH

The variants in this assay derive from B1. The note with it: with arl2_human ARL2, P36404.
Chain of arl2_human ARL2, P36404 (P36404 whole entry): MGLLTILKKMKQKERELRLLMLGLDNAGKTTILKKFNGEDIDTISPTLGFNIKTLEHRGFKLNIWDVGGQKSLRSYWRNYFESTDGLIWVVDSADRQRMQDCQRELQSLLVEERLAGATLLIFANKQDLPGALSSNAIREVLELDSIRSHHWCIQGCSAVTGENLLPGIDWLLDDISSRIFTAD
For E57A, the “effect of a mutation on the interaction” value is “decreasing interaction”. On to F109A, for which the “effect of a mutation on the interaction” value is reported as “decreasing interaction”. In the case of D110A, the “effect of a mutation on the interaction” value is on record as “decreasing interaction”. With L112A, the “effect of a mutation on the interaction” value is listed as “decreasing interaction”. For E56A, the “effect of a mutation on the interaction” value was “decreasing interaction”. As for L60A, the entry is “decreasing interaction”. As for E74A, the “effect of a mutation on the interaction” value is given as “decreasing interaction”. Regarding F115A, the “effect of a mutation on the interaction” value is reported as “decreasing interaction”.
